Residue numbers refer to the chain shown, from its start.
B1: hit J (IgG) (antibody, V domains shown)
VH: QVQLVQSGAEVKKPGSSVKVSCKASGPRFQDLSISWVRQAPGQGLEWMGGIIPIYGTANYAQKFQGRVTITADESTSTAYMELSSLRSEDTAVYYCVKDLTWTNLGLDIWGQGTMVTVSS
VL: EIVMTQSPSSLSASVGDTVTITCRASQGVSRWLAWYQQKPGKAPRLLIYAASSLHSGVPSRFSGSGSGTHFTLTISSLQPEDFATYFCQQSYSTPFTFGPGTKLEIK
notes: IgG: VH and VL cloned into pFUSEss-CHIg-hG1 (human IgG1 heavy) and pFUSE2ss-CLIg-hk (human kappa), made in 293F cells; also called parental clone "J"
B2: clone E (Fab) (Fab, V domains shown)
VH: B1 VH with P27F, R28Q, Q30R, D31T, L32S, S33L, I51L, Y55F
VL: B1 VL with G28S, V29I, S30G, Q90E, T94N, F96Y
notes: Fab made in E. coli TG1 and purified on Ni-NTA
B3: IgG NGS-1 (CDR shuffling) (antibody, V domains shown)
VH: B1 VH with P27F, R28Q, Q30R, D31T, L32S, S33L, I51L, Y55F
VL: EIVMTQSPSSLSASVGDTVTITCRASQGVSRWLAWYQQKPGKAPRLLIYSAASSLYSGVPSRFSGSGSGTHFTLTISSLQPEDFATYFCQQSYSTPFTFGPGTKLEIK
notes: IgG: human IgG1 / kappa from pFUSE vectors, made in 293F cells
B4: clone F (Fab) (Fab, V domains shown)
VH: B1 VH with P27R, R28E, Q30E, D31S, S33F, I51L, Y55F
VL: B1 VL with G28S, V29I, S30G, Q90E, T94N, F96Y
notes: as for B2
B5: IgG 3352 (CDR shuffling) (antibody, V domains shown)
VH: B1 VH with P27F, R28Q, Q30R, D31T, L32S, S33L, I51L, Y55F
VL: B1 VL with V29P, S52Q, S53G, H55S
notes: as for B3
B6: hit 21169 (IgG) (antibody, V domains shown)
VH: B1 VH with P27F, R28Q, Q30R, D31T, L32S, S33L, I51L, Y55F
VL: B1 VL with S52Q, S53G, H55S
notes: as for B3
B7: hit 21155 (IgG) (antibody, V domains shown)
VH: B1 VH with P27F, R28Q, Q30R, D31T, L32S, S33L, I51L, Y55F
VL: B1 VL with A50G, S53P, H55S
notes: as for B3
B8: hit 21343 (IgG) (antibody, V domains shown)
VH: B1 VH
VL: B1 VL with A50N, S52R, H55F
notes: as for B3
B9: hit 275 (IgG) (antibody, V domains shown)
VH: B1 VH with P27F, R28Q, Q30R, D31T, L32S, S33L, I51L, Y55F
VL: B1 VL with V29P
notes: as for B3
B10: clone A (Fab) (Fab, V domains shown)
VH: B1 VH with P27G, R28Q, Q30Y, D31H, L32S, S33R
VL: B1 VL
notes: as for B2
B11: hit 21366 (IgG) (antibody, V domains shown)
VH: B1 VH
VL: B1 VL with A50W, S52A, S53H, H55Q
notes: as for B3
B12: IgG 6401 (CDR shuffling) (antibody, V domains shown)
VH: B1 VH
VL: B1 VL with V29P, A50S, S52R, S53A
notes: as for B3
B13: 366 (antibody, V domains shown)
VH: B1 VH with P27F, R28Q, Q30R, D31T, L32S, S33L, I51L, Y55F
VL: B1 VL with V29A, R31Q, A34K
B14: hit 21341 (LA01) (IgG) (antibody, V domains shown)
VH: B1 VH
VL: B1 VL with A50S, S52R, S53A
notes: IgG: human IgG1 / kappa from pFUSE vectors, made in 293F cells; also called ACVR2A Ab LA01

Tests used:
[1] = target: ACVR2A on HEK293T-B1 cells (ACVR2B knockout stable cell line) (UniProt P27037 20-513); assay: cell-based or functional assay
[2] = target: T1, ACVR2A mouse Fc fusion protein (mouse, UniProt P27037 20-135 (human entry), limits assumed); assay: Activin A competitive ELISA; ACVR2A mouse Fc coated, antibody titrated, competitor activin A
T1 construct: not shown: mouse Fc
Description: (§1) 2.3 Activin A Competitive ELISA. To select ACVR2A hits that could block the interaction between ACVR2A and its ligand Activin A, a competitive ELISA assay was set up. 30 μL 4.17 nM ACVR2A mouse Fc fusion protein was coated in 384-well HB plate at 4° C. overnight following blocking with 5% BSA. Anti-ACVR2A Fab fragment or antibodies with different concentrations were added to the plate and incubated on an orbital shaker at room temperature for 1 hours to allow binding of the antibodies. […] After 5 times washing with TBST, 30 μl of 20 nM goat anti-activin A polyclonal antibody (Abcam, ab7153) in blocking buffer was added into plate and incubated at room temperature for 1 hour. Last, 30 μl of anti-goat IgG-HRP (Beyotime, A0181) in blocking buffer (1:500 dilution) was added to plate for another 30 min incubation following washing step. Luminescence signal was collected on Tecan infinite M1000 after adding 30 μl ECL substrate.

[3] = target: T2, recombinant protein comprising the human ACVR2A extracellular domain (ECD) fused to the human IgG1 Fc region (human, UniProt P27037 20-135); assay: SPR, Biacore 3000 (1st test); ACVR2A-Fc captured by anti-human Fc, Fab injected
T2 construct: extracellular domain; also called ACVR2A-Fc; ACVR2A-FC; not shown: human IgG1 Fc region
From the text: (§2) 2.2 Surface Plasmon resonance (SPR) measurements and affinity analysis by anti-human Fc capture format. After affinity panning, output-3 (03) of CDRH1 library were screened for binding ability by Fab ELISA and followed by NGS DNA sequencing. Based on binding Elisa and sequence abundance from NGS data, 11 clones were select for SPR analysis. Approximately 100-800 resonance units (RU) of antigen ACVR2A, was captured by anti-human Fc immobilized on a channel of a CM5 chip with an activated amine group. After immobilization, Fab antibodies were injected into the channels at 25° C. in HBS-EP buffer, with a flow rate of 30 μL/min, 1 min. When the data collection was finished in each cycle, the sensor surface was regenerated using 80 mM NaOH with a flow rate of 30 μL/min, 15 sec and reused chip in next cycle. After subtraction of reference surface and buffer injection, curve was locally fitted with BIA evaluation version 4.1 using a 1:1 Langmuir binding mode.
(§3) The affinity of selected 11 anti-ACVR2A monoclonal antibody clones were determined on Biacore®3000 and Biacore®8000 as shown in Table 4 below.

[4] = target: T2, recombinant protein comprising the …; assay: SPR, Biacore 8000 (2nd test); ACVR2A-Fc captured by anti-human Fc, Fab injected
From the text: as §2, §3

[5] = target: T2, recombinant protein comprising the …; assay: SPR, Biacore; format and antigen construct not given
[6] = target: T2, recombinant protein comprising the …; assay: SPR, Biacore 3000 (1st test); ACVR2A-Fc captured by anti-human Fc, Fab injected; 1st test (Biacore 3000)
From the text: as §2, §3

[7] = target: T1, ACVR2A mouse Fc fusion protein; assay: Activin A competitive ELISA: ACVR2A mouse Fc fusion coated, IgG titrated, then 16.7 nM Activin A added; bound Activin A detected (luminescence)
Description: as §1

T2 sequence (P27037 20-135): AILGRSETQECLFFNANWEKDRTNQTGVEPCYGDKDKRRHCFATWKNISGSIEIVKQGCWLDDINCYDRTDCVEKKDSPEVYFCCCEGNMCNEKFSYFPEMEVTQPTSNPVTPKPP
T1 sequence (P27037 20-135 limits assumed): as the sequence (P27037 20-135) above
Sequence of ACVR2A on HEK293T-B1 cells (ACVR2B knockout stable cell line) (P27037 20-513): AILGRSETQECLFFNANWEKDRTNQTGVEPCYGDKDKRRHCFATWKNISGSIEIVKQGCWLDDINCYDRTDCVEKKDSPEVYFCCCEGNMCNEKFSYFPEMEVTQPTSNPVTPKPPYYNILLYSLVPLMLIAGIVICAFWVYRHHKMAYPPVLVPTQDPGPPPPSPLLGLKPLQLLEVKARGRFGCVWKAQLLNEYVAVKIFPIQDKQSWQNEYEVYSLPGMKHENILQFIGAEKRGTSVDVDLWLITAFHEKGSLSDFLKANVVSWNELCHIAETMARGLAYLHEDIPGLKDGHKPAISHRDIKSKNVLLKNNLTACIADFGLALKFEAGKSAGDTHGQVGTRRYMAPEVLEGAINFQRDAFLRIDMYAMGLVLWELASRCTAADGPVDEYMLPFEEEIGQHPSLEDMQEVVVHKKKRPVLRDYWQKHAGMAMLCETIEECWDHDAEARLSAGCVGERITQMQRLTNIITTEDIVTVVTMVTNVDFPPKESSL

Binder | IC50 (M), HEK293T-B1 CAGA-Luc, Activin A [1] | IC50 (M), HEK293T-B1 CAGA-Luc, GDF8 [1] | IC50 [2] | Kd [3] | koff [3] | kon [3] | Kd [4] | koff [4] | kon [4] | Kd [5] | koff [5] | kon [5] | kon [6] | IC50 (read off the curve) [7]
B1 | 5.12e-09 M | 2.06e-09 M | 5.04 nM | – | – | – | – | – | – | – | – | – | – | –
B2 | – | – | – | 0.664 nM | 0.00019 s⁻¹ | 285000 M⁻¹ s⁻¹ | 0.501 nM | 0.000153 s⁻¹ | 307000 M⁻¹ s⁻¹ | – | – | – | – | –
B3 | 3.28e-09 M | 2.42e-10 M | 1.86 nM | – | – | – | – | – | – | 0.638 nM | 0.000118 s⁻¹ | 185000 M⁻¹ s⁻¹ | – | –
B4 | – | – | – | 11.8 nM | 0.000288 s⁻¹ | 24400 M⁻¹ s⁻¹ | 1.47 nM | 0.000331 s⁻¹ | 225000 M⁻¹ s⁻¹ | – | – | – | – | –
B5 | 2.28e-09 M | 3.51e-10 M | 2.07 nM | – | – | – | – | – | – | 0.584 nM | 9.41e-05 s⁻¹ | 161000 M⁻¹ s⁻¹ | – | –
B6 | 2.66e-09 M | 4.99e-10 M | 5.3 nM | – | – | – | – | – | – | 0.663 nM | 0.000238 s⁻¹ | 359000 M⁻¹ s⁻¹ | – | –
B7 | 1.78e-09 M | 6.51e-10 M | 5.13 nM | – | – | – | – | – | – | 0.211 nM | 8.07e-05 s⁻¹ | 382000 M⁻¹ s⁻¹ | – | –
B8 | 9.07e-09 M | 1.64e-09 M | 4.74 nM | – | – | – | – | – | – | 0.43 nM | 4.51e-05 s⁻¹ | 105000 M⁻¹ s⁻¹ | – | –
B9 | 4.91e-09 M | 8.81e-10 M | 6.04 nM | – | – | – | – | – | – | 0.872 nM | 0.000319 s⁻¹ | 366000 M⁻¹ s⁻¹ | – | –
B10 | – | – | – | 5.29 nM | 0.00227 s⁻¹ | – | 5.35 nM | 0.00257 s⁻¹ | 481000 M⁻¹ s⁻¹ | – | – | – | 429000 M⁻¹ s⁻¹ | –
B11 | 3.64e-09 M | 1.65e-09 M | 4.15 nM | – | – | – | – | – | – | 0.153 nM | 7.91e-06 s⁻¹ | 51600 M⁻¹ s⁻¹ | – | –
B12 | 1.93e-09 M | 2.16e-09 M | 1.95 nM | – | – | – | – | – | – | 0.865 nM | 0.000135 s⁻¹ | 156000 M⁻¹ s⁻¹ | – | –
B13 | – | – | – | – | – | – | – | – | – | – | – | – | – | ~9 nM
B14 | 6.24e-09 M | 1.6e-09 M | 4.83 nM | – | – | – | – | – | – | 0.172 nM | 5.44e-05 s⁻¹ | 316000 M⁻¹ s⁻¹ | – | –

From patent publication US20240368289A1 (LAEKNA THERAPEUTICS SHANGHAI, published 2024)
